Reference: PMC6009593 (Nucleic Acids Research, 2018)

B1: Pyrococcus furiosus Proliferating Cell Nuclear Antigen (PfuPCNA) (natural protein)
chain: MPFEIVFEGAKEFAQLIDTASKLIDEAAFKVTEDGISMRAMDPSRVVLIDLNLPSSIFSKYEVVEPETIGVNMDHLKKILKRGKAKDTLILKKGEENFLEITIQGTATRTFRVPLIDVEEMEVDLPELPFTAKVVVLGEVLKDAVKDASLVSDSIKFIARENEFIMKAEGETQEVEIKLTLEDEGLLDIEVQEETKSAYGVSYLSDMVKGLGKADEVTIKFGNEMPMQMEYYIRDEGRLTFLLAPRVEE

Legend:
[1] = molecular target: B1; assay: SPR
[2] = molecular target: Pyrococcus furiosus Mre11–Rad50 complex, wild type, full length (PfuMR wt) (Pyrococcus furiosus, UniProt Q8U1N9 1-426; P58301 1-882); assay: SPR
Sequence of Pyrococcus furiosus Mre11–Rad50 complex, wild type, full length (PfuMR wt) (P58301 whole entry, one chain of several): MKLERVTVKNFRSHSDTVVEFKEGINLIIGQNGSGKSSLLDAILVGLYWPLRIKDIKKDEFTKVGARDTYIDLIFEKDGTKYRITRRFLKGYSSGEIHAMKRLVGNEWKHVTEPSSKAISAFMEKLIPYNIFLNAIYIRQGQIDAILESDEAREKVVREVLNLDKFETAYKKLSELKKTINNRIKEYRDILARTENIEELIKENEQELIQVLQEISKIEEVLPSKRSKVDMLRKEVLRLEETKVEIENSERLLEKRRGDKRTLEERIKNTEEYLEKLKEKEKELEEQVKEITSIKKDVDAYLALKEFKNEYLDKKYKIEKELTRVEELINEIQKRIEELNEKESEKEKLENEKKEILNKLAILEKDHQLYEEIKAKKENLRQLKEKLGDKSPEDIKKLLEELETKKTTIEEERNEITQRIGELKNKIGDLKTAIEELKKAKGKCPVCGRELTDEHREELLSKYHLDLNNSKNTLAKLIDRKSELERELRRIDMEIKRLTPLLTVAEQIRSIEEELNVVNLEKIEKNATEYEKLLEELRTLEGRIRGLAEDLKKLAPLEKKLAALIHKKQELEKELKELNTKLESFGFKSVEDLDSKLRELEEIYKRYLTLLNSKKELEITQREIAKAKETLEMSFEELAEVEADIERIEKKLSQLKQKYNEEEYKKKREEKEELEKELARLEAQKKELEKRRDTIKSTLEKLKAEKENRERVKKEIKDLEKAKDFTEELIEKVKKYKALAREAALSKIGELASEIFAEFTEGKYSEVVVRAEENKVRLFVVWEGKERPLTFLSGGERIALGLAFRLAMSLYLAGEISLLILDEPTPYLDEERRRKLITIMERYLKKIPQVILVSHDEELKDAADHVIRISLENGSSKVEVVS

Kd [1] [nM] | Kd [2] [nM] | Binder
4050 | – | Ac-KKKRGTLDSWLGG-NH2 [PIP-like Mre11 peptide (PfuMre11 412–424)]
– | ~4.07 | B1
